Source: the RNAGym collection of RNA variant scans (doi:10.7554/elife.80360)

B1: HDV Ribozyme (parent)
chain: GGCCGGCAUGGUCCCAGCCUCCUCGCUGGCGCCGGCUGGGCAACAUUCCGAGGGGACCGUCCCCUCGGUAAUGGCGAAUGGGACCCA
B2: Hairpin Ribozyme (parent)
chain: GUCCUCUUUCACGUGCGCGUGAAAGAGAGAAGUGAACCAGAGAAACACACGUUGUGGUAUAUUACCUGGUA

Variants of: B1
Test: self-cleavage, relative activity (ratio to wild type); higher = more cleavage; co-transcriptional

Variant	self-cleavage
G73U C84U	0.256
A77C A78G	0.151
G80C C86A	0.213
G80C C86U	0.3
U72A C86U	0.957
A78U C85A	0.185
A78U C85U	0.18
G76C C86U	0.886
A77C G82C	0.116
U72C G74U	0.584
C75A G76U	0.289
C75A G76A	0.166
G74U C86G	0.485
C75G G82A	0.208
G74A G81A	0.213
G74A G81U	0.12
G76A C86U	0.92
A77C C84A	0.128
G81A C84G	0.237
G76C G82A	0.432
G76C G82C	0.225
G81U G82C	0.297
A78U G80A	0.111

Variant	self-cleavage
G76U U79A	0.984
G80U A87U	0.235
A77G G82U	0.277
A77G G82A	0.364
G76C U79A	0.649
G76C U79G	0.617
G76C U79C	0.643
G81A C85U	0.163
G74U C85G	0.617
A77U A87G	0.591
A77G G80A	0.242
G73U G81U	0.208
U79G A83U	0.122
G73U A83U	0.0462
G73C U79A	0.302
C85G A87U	0.785
A78U A87U	0.243
G74A U79C	0.118
G73C C86G	0.415
C84A A87C	0.758
U79C A83G	0.253
G82A A83G	0.156
G82A A83C	0.451

Variant	self-cleavage
G74A G76A	0.443
A77G U79C	0.443
A77G U79G	0.465
A77G U79A	0.554
G81A A87G	0.258
A77U U79G	0.161
G73A A83G	0.511
G76A G81U	0.437
U72G G74U	0.264
A78C U79A	0.0978
G76U G82U	0.483
G76A A83U	0.875
G73C G81C	0.0292
G74A C84A	0.389
G74A C84G	0.168
C75U A77U	0.374
U72C G73A	0.407
U72C G73C	0.208
A78C G81U	0.128
A78C G81C	0.0665
C75A A87G	0.251
U72C G81U	0.148
G76C A83G	0.554

Variant	self-cleavage
G76C A83U	0.464
C75G C85U	0.237
G80A C86G	0.362
U72A C84U	0.578
U72A C84G	0.213
U72A A77U	0.322
G81C A83C	0.222
G81C A83U	0.237
G81C A83G	0.131
G81U A83U	0.126
G73A A87C	0.643
G76C A77U	0.399
U72A G82U	0.225
U72A G82A	0.295
G74U U79A	0.268
U79G G81C	0.26
U72G G73A	0.707
C75G C84G	0.282
A78G G80U	0.12
A78G C84G	0.185
G73U G76A	0.208
G73U G76C	0.158
A78U C84U	0.252

Variant	self-cleavage
G81C C86G	0.138
C75U A87G	0.0917
G74A G82C	0.249
G74A G82A	0.0656
U72A G76A	0.759
G82A C86G	0.279
G73C G76C	0.501
G73C G76U	0.659
A77C A87G	0.208
U72A G74A	0.373
G74A A83U	0.272
G82C A83G	0.233
U79A G82U	0.374
U79A G82C	0.0504
G76U G81A	0.506
C75U G80A	0.0573
A71U C86U	1.02
G74C C84G	0.0875
G82C A87U	0.247

Variants of: B2
Test: as above

Variant	self-cleavage
G1A G42A	0.122
G1A G17C	0.12
G1A A36C	0.215
G1A G29U	0.157
G1A G29A	0.157
G1A G29C	0.196
G1A A43C	0.144
G1A A64C	0.0979
G1A G15A	0.208
G1A G15U	0.0969
G1A A30U	0.159
G1A A35U	0.142
G1A A61U	0.0641
G1A G21C	0.119
G1A G51U	0.274
G1A A44U	0.17
G1A A28G	0.196
G1A A28U	0.0496
G1A G27A	0.144

Variant	self-cleavage
G1A G27U	0.153
G1A A71C	0.435
G1A A71U	0.196
G1A A41C	0.134
G1A C38G	0.157
G1A A39U	0.154
G1A A24C	0.18
G1A A24G	0.159
G1A A24U	0.191
G1A A23C	0.221
G1A A23G	0.123
G1A G25U	0.102
G1A G25A	0.245
G1A C10G	0.207
G1A G69C	0.137
G1A G69A	0.164
G1A C37A	0.0752
G1A G13A	0.161
G1A A22G	0.223

Variant	self-cleavage
G1A A45U	0.106
G1A C3U	0.136
G1A C3A	0.115
G1A U2A	0.574
G1A A26C	0.147
G1A C50U	0.135
G1A C16A	0.172
G1A A31C	0.132
G1A A31U	0.284
G1A C46U	0.225
G1A C12U	0.266
G1A C66U	0.127
G1A C66A	0.164
G1A A11G	0.0942
G1A A11C	0.139
G1A G19U	0.13
G1A G19A	0.203
G1A G19C	0.203
